Assay results reported in the supplement of paper PMC9170038.

System: MS2 coat protein
Test: apparent KD of MS2 coat protein; designed switch direction (-1 OFF switch, 1 ON switch): -1; higher = weaker reporter binding
Method in brief: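 SNAP-549-labelled MS2 coat protein was titrated, doubling from 0.7 or 1.5 nM to 3 µM, over designed RNA switches transcribed on Illumina chips by stalled E. coli RNA polymerase. Runs were done without input, with 200 uM small-molecule ligand, or with an oligonucleotide input. Apparent KD is the per-design median over clusters of curve-fitted normalised fluorescence.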

[1] = input ligand: microRNA oligo, concentration not stated
[2] = Eterna round: R95, input ligand: microRNA oligo, concentration not stated
[3] = Eterna round: R95, input ligand: FMN 200 uM
[4] = Eterna round: R95, input ligand: none

## CUGCUGGAGCGUCGCUUUGGUCGUACAUGAGGAUCACCCAUGUAGGAUAUGGUAAAAUUCGCCUGCUAGAAGGAUAGAGUGGUC [salish99_ExNG3_r04_618] (Eterna round: R96, puzzle: Exclusion NG 3)
Input ligand: FMN 200 uM
  apparent KD of MS2 coat protein: 142 nM
[1]
  apparent KD of MS2 coat protein: 93.6 nM
Input ligand: none
  apparent KD of MS2 coat protein: 78.9 nM

## GGUAGAGUGGUAGGAUAUCCGUCUGUUUCAGUCGGAGAAGGACCACAGUCACUGGGUCCUAAUAUGGGUGACCAUGUAUCUACC [pwkr exNG1 F6.11] (Eterna round: R96, puzzle: Exclusion NG 1)
Input ligand: FMN 200 uM
  apparent KD of MS2 coat protein: 1340 nM
[1]
  apparent KD of MS2 coat protein: 279 nM
Input ligand: none
  apparent KD of MS2 coat protein: 348 nM

## GUAAUUAAUGUAGGAUAUGCAAGGCGAACCUAAGCAGAAGGACAUGAGGAUCACCCAUGUAAUGCGGUCUGCGUACAGAUCGCU [salish99_ExNG1_r4_007] (Eterna round: R96, puzzle: Exclusion NG 1)
Input ligand: FMN 200 uM
  apparent KD of MS2 coat protein: 47.8 nM
[1]
  apparent KD of MS2 coat protein: 13.2 nM
Input ligand: none
  apparent KD of MS2 coat protein: 24.2 nM

## AGUAGUUCAGGAUAUGAUGUUGAGUACAUGAGGAUCACCCAUGUAGGUCCUGGAUUUGCAUCAGAAGGGAAUAACU [JR_Ex5_Sub084] (Eterna round: R97, puzzle: Exclusion 5)
Input ligand: FMN 200 uM
  apparent KD of MS2 coat protein: 59 nM
Input ligand: none
  apparent KD of MS2 coat protein: 26.7 nM

## ACAAGCUUGUAAUGAUAGAACAUGAGGAUCACCCAUGUAAAUGGAAGAACCAAUUAGAUAAGAUAAACUCGUCUUAU [JR_STOV1_Sub002] (Eterna round: R97, puzzle: Sensor, turn-off variant 1)
Input ligand: FMN 200 uM
  apparent KD of MS2 coat protein: 59.1 nM
Input ligand: none
  apparent KD of MS2 coat protein: 69.5 nM

## CAGUACUGAGGAUAUACAUGAGGAUCACCCAUGUGUGUGAGAUUUGUGUGGUUGUUUUGUAGAAGGCGGUGCUG [JR_Ex3_Sub031] (Eterna round: R97, puzzle: Exclusion 3)
Input ligand: FMN 200 uM
  apparent KD of MS2 coat protein: 19.1 nM
Input ligand: none
  apparent KD of MS2 coat protein: 91.2 nM

## UAAUAAUAGCAAGGAUAUGGUUAUUAUAAUAUACCAGAAGGUGCACAUGAGGAUCACCCAUGUUUUAUAAUUUGUAAUUUAAAU [First something] (Eterna round: R96, puzzle: Exclusion NG 1)
[1]
  apparent KD of MS2 coat protein: 22.9 nM

## UGUCUUGCAGGAUAUACAUGAGGAUCACCCAUGUAUAUUGAUGAGGGAGAUCUACUAGGUAGAAGGGUAAGAGA [Eternabot (L2) Solution 59] (Eterna round: R97, puzzle: Exclusion 3)
Input ligand: FMN 200 uM
  apparent KD of MS2 coat protein: 45 nM
Input ligand: none
  apparent KD of MS2 coat protein: 17.8 nM

## UAAGUUUACCGAGGAUAUGGUUUUUCCUUUUUACCAGAAGGCGGACUCAACAUGAGGAUCACCCAUGUAUAAAGGGUAUUUGGU [JR_ExcNG1_Sub045] (Eterna round: R96, puzzle: Exclusion NG 1)
Input ligand: FMN 200 uM
  apparent KD of MS2 coat protein: 57.8 nM
[1]
  apparent KD of MS2 coat protein: 49.6 nM
Input ligand: none
  apparent KD of MS2 coat protein: 54 nM

## CCGGAAAGGAAGGAUAUGCUAGACGAUAGUCUAGCAGAAGGUCCUACAUGAGGAUCACCCAUGUGGUCCUCCGG [Mat - Exclusion 6 - Eli Mod - D33] (Eterna round: R97, puzzle: Exclusion 6)
Input ligand: FMN 200 uM
  apparent KD of MS2 coat protein: 274 nM
Input ligand: none
  apparent KD of MS2 coat protein: 1210 nM

## CUAAAUCAUGUAGGAUAUGCGUGGCGAAGCUAUGCAGAAGGACAUGAGGAUCACCCAUGUCAUUCCGUCUGCGUACAGACGGGA [Mat - Exclusion NG 1 - Mod of JL - D48] (Eterna round: R96, puzzle: Exclusion NG 1)
Input ligand: FMN 200 uM
  apparent KD of MS2 coat protein: 133 nM
[1]
  apparent KD of MS2 coat protein: 21 nM
Input ligand: none
  apparent KD of MS2 coat protein: 28.6 nM

## AGUCCGUCAGGAUAUGCAAUUGUGGACAUGAGGAUCACCCAUGUAACGUGGGCAUGGUUUGUAGAAGGGACGUGCA [EX5 #92] (Eterna round: R97, puzzle: Exclusion 5)
Input ligand: FMN 200 uM
  apparent KD of MS2 coat protein: 129 nM
Input ligand: none
  apparent KD of MS2 coat protein: 95.3 nM

## UAUUCGCAAGCGAGAUCCCACAUGAGGAUCACCCAUGUGCUCGUCUUAUAAGGUACUGUGACGAGAGUCACGGUACC [Mat - Sensor, turn-off var - Eli Mod - D82] (Eterna round: R97, puzzle: Sensor, turn-off variant 1)
Input ligand: FMN 200 uM
  apparent KD of MS2 coat protein: 16.8 nM
Input ligand: none
  apparent KD of MS2 coat protein: 14.7 nM

## UUAAUAAUGUAAGGAUAUGCGUGGCGAAGCUAUGCAGAAGGUACAUGAGGAUCACCCAUGUGGUCCGUCUGCGUACAGAUGGAA [JL Eng1 1.08 mod] (Eterna round: R96, puzzle: Exclusion NG 1)
Input ligand: FMN 200 uM
  apparent KD of MS2 coat protein: 756 nM
[1]
  apparent KD of MS2 coat protein: 319 nM
Input ligand: none
  apparent KD of MS2 coat protein: 365 nM

## AAAUAGGUAGGAUAUACAUGAGGAUCACCCAUGUGCUGCCGCGCGUCAAUCUCUUCACGUAGAAGGGCCCAGAC [Reveara] (Eterna round: R97, puzzle: Exclusion 3)
Input ligand: FMN 200 uM
  apparent KD of MS2 coat protein: 13.1 nM
Input ligand: none
  apparent KD of MS2 coat protein: 14.1 nM

## ACAAAGGUAGGAUAUCGGACUAUGGACAUGAGGAUCACCCAUGUGCGUCCAAUGCCCAACCGAGAAGGACCAACAG [Isindiedbe] (puzzle: Exclusion 5)
[2]
  apparent KD of MS2 coat protein: 43.7 nM

## GGUCAGAUGGUAGGAUAUUCAUAUCGAGUGACCCUUUCAUAACAUGAGGAUCACCCAUGUCGGUGGGAGAAGGGCCGUACGGCG [salish99_ExNG02_R04_014] (Eterna round: R96, puzzle: Exclusion NG 2)
Input ligand: FMN 200 uM
  apparent KD of MS2 coat protein: 26.9 nM
[1]
  apparent KD of MS2 coat protein: 29.3 nM
Input ligand: none
  apparent KD of MS2 coat protein: 50.7 nM

## GAUUAUGCGAGCUUUAGGGACAUGAGGAUCACCCAUGUUCGUCUUAUUAGUCUAAGUGCACUGACAUACCUAAAUCU [JMF 83] (puzzle: Sensor v3, turn-off variant 1)
[3]
  apparent KD of MS2 coat protein: 15.8 nM
[2]
  apparent KD of MS2 coat protein: 23.2 nM
[4]
  apparent KD of MS2 coat protein: 16.6 nM

## CCAGUGUAAGGAUAUGUAUACGUCUCUCUGGUAUGAGGGCGGCAGAAGGUACAUGAGGAUCACCCAUGUCAUAU [Eternabot (L2) Solution 94] (Eterna round: R97, puzzle: Exclusion 4)
Input ligand: FMN 200 uM
  apparent KD of MS2 coat protein: 37.3 nM
Input ligand: none
  apparent KD of MS2 coat protein: 22.5 nM

## UAUUAGUGAGGAUAUGAGUCGUAGAACAAUAGUACUACGUCUCAGAAGGUACAUGAGGAUCACCCAUGUUCCUC [Fiskers Ex 4 Super Stable 44 mod 32] (puzzle: Exclusion 4)
[2]
  apparent KD of MS2 coat protein: 18.9 nM

## UUUUAACAUGAGGAUCACCCAUGUGAGGAUAUCGAAAUUUUUAUUAAUAUUAAUAAAACGAGAAGGCACAUUUU [JMF 12] (puzzle: Exclusion 1)
[2]
  apparent KD of MS2 coat protein: 58.3 nM

## GGGAUGUCAGGAUAUCCGAAAGUCUGCCAAUACGGCAGACAGGAGAAGGGACAUGAGGAUCACCCAUGUAAAGA [Aedxear] (puzzle: Exclusion 4)
[3]
  apparent KD of MS2 coat protein: 120 nM
[2]
  apparent KD of MS2 coat protein: 59.4 nM
[4]
  apparent KD of MS2 coat protein: 49.4 nM

## CUGUGCACGCUGCGAUCCUACAUGAGGAUCACCCAUGUGGUCUGGUGGCGUGGGUCACCGGACUUGGCUCGUCUUGC [salish99_S_TOV1_R5_071] (Eterna round: R97, puzzle: Sensor, turn-off variant 1)
Input ligand: FMN 200 uM
  apparent KD of MS2 coat protein: 31.4 nM
Input ligand: none
  apparent KD of MS2 coat protein: 31.6 nM

## ACUUAUUGAGGAUAUACAUUAAAAUACAUGAGGAUCACCCAUGUUCUUCAAUGUAUAUAUGUAGAAGGCAGAAGAA [JL-ex5-4.29 Malcolm mod] (Eterna round: R97, puzzle: Exclusion 5)
Input ligand: FMN 200 uM
  apparent KD of MS2 coat protein: 57.6 nM
Input ligand: none
  apparent KD of MS2 coat protein: 22.2 nM

## AACGGUGGGUAGGAUAUCCGGUUCUAGUUGCCAGGAGAAGGGCCCACAUGAGGAUCACCCAUGUGGGUGGGCUC [Maesri] (Eterna round: R96, puzzle: Exclusion 6)
Input ligand: FMN 200 uM
  apparent KD of MS2 coat protein: 44.6 nM
[1]
  apparent KD of MS2 coat protein: 43.1 nM
Input ligand: none
  apparent KD of MS2 coat protein: 81.3 nM

## CUUGUGUGAGGAUAUGAAUUACCUGGUCAAACAGGCUCCUGUCAGAAGGCACAUGAGGAUCACCCAUGUGGGCA [Dibilela] (Eterna round: R97, puzzle: Exclusion 4)
Input ligand: FMN 200 uM
  apparent KD of MS2 coat protein: 121 nM
Input ligand: none
  apparent KD of MS2 coat protein: 310 nM

## CCGGCUUAGGAGGAUAUCCCACCCGAAAGGGUGGGAGAAGGCCUAACAUGAGGAUCACCCAUGUGUCCUACCGG [Mod of Eli 15 - Jieux - Exclusion 6] (Eterna round: R97, puzzle: Exclusion 6)
Input ligand: FMN 200 uM
  apparent KD of MS2 coat protein: 91.2 nM
Input ligand: none
  apparent KD of MS2 coat protein: 25.5 nM

## AAUACAAGCUAUUGAUCCCACAUGAGGAUCACCCAUGUAGGAGGCGGUGACACCUCCUUUACGAUAGCUCGUCUUAU [Sensor-V1 #53] (Eterna round: R97, puzzle: Sensor, turn-off variant 1)
Input ligand: FMN 200 uM
  apparent KD of MS2 coat protein: 213 nM
Input ligand: none
  apparent KD of MS2 coat protein: 219 nM

## UGGUAACAUGAGGAUCACCCAUGUCAGGAUAUCAGUAAGAAGAGAUUAGAGUAGAAUAUGAGAAGGGACUAUAG [Excluse me! 1 - Jieux - Exclusion 1] (puzzle: Exclusion 1)
[2]
  apparent KD of MS2 coat protein: 35.8 nM

## GGGUACAAGCUAAGAUCCUACAUGAGGAUCACCCAUGUGGUCCGGUGACGUGAGUCACCGGACUUAGCUCGUCUUGU [salish99_S_TOV1_R5_003] (Eterna round: R97, puzzle: Sensor, turn-off variant 1)
Input ligand: FMN 200 uM
  apparent KD of MS2 coat protein: 59.3 nM
Input ligand: none
  apparent KD of MS2 coat protein: 61.3 nM

## AGAGAGUCAGGAUAUCGGAGGGAGAGGAGAGGAGAGAGGGACGAGAAGGGACAUGAGGAUCACCCAUGUAGGUG [JR_Exclusion4)Sub017] (puzzle: Exclusion 4)
[3]
  apparent KD of MS2 coat protein: 263 nM
[2]
  apparent KD of MS2 coat protein: 437 nM
[4]
  apparent KD of MS2 coat protein: 663 nM
